Data published in the nanobody polyreactivity screen of Harvey et al. (2022).

Assay: yeast display, Sf9 membrane polyspecificity reagent, FACS + sequencing; frameworks hold sequencing errors
Outline: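 In a synthetic yeast display library (Saccharomyces cerevisiae BJ5465), nanobody expression was induced with galactose for 36–48 hours. FACS gates were set low and high (top ~1%) using anti-HA fluorescence for expression and streptavidin fluorescence for binding of the Sf9 membrane reagent. Each polyreactivity label is drawn from the gate of origin.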

Row | Sequence | polyreactivity (PSR sort gate)
1 | QVQLVESGGGLVQAGGSLRLSCAASGSTFDQYGMGWYRQAPGKDRELVAAITSVGGTNYADSVKGRFTISRDNAKKTVYLQMNSLKPEDTAVYYCARRYPKNHKAPGRMDYWGQGTQVTVSS | low polyreactivity
2 | QVQLVESGGGLVQAGGSLRLSCAASGSTFDRNVMGWYRQAPGKERELVAAISRVSSTNYADSVKGRFTISRDNAKNTVYLQMNSLKPEDTAVYYCAVDRAGSIMNYWGQGTQVTVSS | low polyreactivity
3 | QVQLVESGGGLVQAGGSLRLSCAASGSTFDRYAMAWYRQAPGKERELVAAISKNGGRTYYADSVKGRFTISRDNAKNTVYLQMNSLKPEDTAVYYCAKDIIKYDYDYWGQGTQVTVSS | low polyreactivity
4 | QVQLVESGGGLVQAGGSLRLSCAASGSTFDRYAMGWYRQAPGKERELVAAISCSGGRTYYADSVKGRFTISRDNEKNTVYLQMNSLKPEDTAVYYCATVSRSSLAYIKYDYWGQGTQVTVSA | high polyreactivity
5 | QVQLVESGGGLVQAGGSLRLSCAASGSTFDRYDMVWYRQAPGKETELVAAITRRGGSTYYADSVKGRFTFSRDNAKNTVYLQMNSLQPEDTAVYYCNAKHFAYSVAHPYLRYGYDYWGQGTHVTVSS | low polyreactivity
6 | QVQLVESGGGLVQAGGSLRLSCAASGSTFDSNAMGWYRQAPGKERELVAGITIGGSTNYADSVKGRFTISRDNAKNTVFLQMNSLKPEDTAVYYCNVVKYVYIYSYWEYYYWGQGTQVTVSS | low polyreactivity
7 | QVQLVESGGGLVQAGGSLRLSCAASGSTFDSYAMGWYRQAPGKEGELVAAITGGGDTNYADSVKGRFTISRDNAKNTVYLQMNSLKPEDTAVYYCAAYQRRGNYQMDLWGQGTQVTVSS | low polyreactivity
8 | QVQLVESGGGLVQAGGSLRLSCAASGSTFDSYAMGWYRQAPGKERELVAAITNGGSTYYADSVKGRFTISRDNAKNTVYLQMNSLKPEDTEVYYCATDDYLLDYLYDYWGQGTQVTVSS | low polyreactivity
9 | QVQLVESGGGLVQAGGSLRLSCAASGSTFDTYAMGWYRQAPGKERELGAAISWSVDSTYYADSVKGRFTISRDNAKNTVYLQMNSLKPEDTAVYYCATVGYGYDYWGQGTQVTVSS | high polyreactivity
10 | QVQLVESGGGLVQAGGSLRLSCAASGSTFDTYAMGWYRQAPGKERELVAAISYRGGNTYYADSVKGRFTISRDNAKNTVYLQMNSLKPEDTAVYYCAASYFDPASIPVAFNYWGQGTQVTVSS | low polyreactivity
11 | QVQLVESGGGLVQAGGSLRLSCAASGSTFDVNAMGSYRQAPGKERELVAAISWNSGSTYFADSVKGRFTISRDNAKNTVYLQMNRLKPEDTAVYYCAATYGTGRRSKYGYWGQGTQVTVSS | high polyreactivity
12 | QVQLVESGGGLVQAGGSLRLSCAASGSTFDVNAMGWYRQAPGKERELVAAITQSGGSTFYADSVKGRFTISRDNAKNTVYLQMNSLKPEDTAVYYWGQGTQVTVSS | low polyreactivity
13 | QVQLVESGGGLVQAGGSLRLSCAASGSTFDVYAMGWYRQAPGKERELVATISTSGGDTYYADSVKGRFTISRDNAKNTVYLQMNSLNPEDTAVYYCNVSASYYSPDPKVLVRYDYWGQGTQVTVSS | low polyreactivity
14 | QVQLVESGGGLVQAGGSLRLSCAASGSTFDVYAMGWYRQAPGKERELVAVINTSGTRTYYADSVKGRFTISRDNAKNTVYLQMNSLKPEDTAVYYCNAGGHLEMNYWGLGTQVTVSS | low polyreactivity
15 | QVQLVESGGGLVQAGGSLRLSCAASGSTFDVYAMGWYRQAPGKERELVAVINTSGTRTYYADSVKGRFTISRDNAKNTVYLQMNSLKPEDTAVYYCNAGGHLEMNYWGQGTEVTVSS | low polyreactivity
16 | QVQLVESGGGLVQAGGSLRLSCAASGSTFDVYAMGWYRQGPGKERELVATISNYGGDTYYADSVKGRFTISRDNAENTVYLQMNTLKPEDTAVYYCNAYLRFVDVSLDYQLLLEHDFWGQGTQVTVSS | low polyreactivity
17 | QVQLVESGGGLVQAGGSLRLSCAASGSTFDVYTMGWYRQAPGKERELVATISGDDGSTYYADSVKGRFTISRDNAKNTVYLQMNSLKPEDTAVYYCAADYGGFPNYYSTGDYWGQGTQVTVSS | low polyreactivity
18 | QVQLVESGGGLVQAGGSLRLSCAASGSTFDWYAMGWYRQAPGKERELVATIRYRGGTSYADSVKGRFTISRDNEKNTVYLQMNSLKPEDTAVYYCNAQLYIFDDSYNYWGFDYWGQGTQVTVSS | high polyreactivity
19 | QVQLVESGGGLVQAGGSLRLSCAASGSTFDWYVMGWDRQAPGKERELVADITWSGDSTYYADSVKGRFTISRDNAKNTVYLQMNSLKPEDTAVYYCAADAYTLFYFYVYEYNYWGQGTQVTVSS | high polyreactivity
20 | QVQLVESGGGLVQAGGSLRLSCAASGSTFDYNAMGGYRQAPGKERELVAAISRGGNTYYADSVKGRFTISRDNAKNTVYLQMNSLKPEDTAVYYCAKDSYGSYRFVRNRQKAYGYWGQGTQVTVSS | low polyreactivity
21 | QVQLVESGGGLVQAGGSLRLSCAASGSTFDYNAMGWYRQAPGKERELVAAISSTGGSTYYADSVKGRFTISRDNAKNTVYLQMNSLKPEDTAVYFCARYYAIVSGYYDDGYWGQGTQVTVSS | high polyreactivity
22 | QVQLVESGGGLVQAGGSLRLSCAASGSTFDYNAMGWYRQAPGKERELVATITSTGRTNYADSVKGRFTISRDNAKNTVYLQMNSLKPEDTAVYYCAKRTFFGKARGGPTYRLYYWGQGTQVTVSS | high polyreactivity

Row | Sequence | polyreactivity (PSR sort gate)
23 | QVQLVESGGGLVQAGGSLRLSCAASGSTFDYNAMVWYRQAPGKESDLVVAITWGGDSTYADSVKGRFTISRDNAKNTVYLQMNSLKPEDTAVYYCAAEQDPWTSRYVFFASRYDYWGQGTQVTVSS | low polyreactivity
24 | QVQLVESGGGLVQAGGSLRLSCAASGSTFDYNTMGWYRQAPGKERELVADITLRGASTYYADSVKGRFTISRDNAKNTVYLLMNSLKPEDTAVYYCNADYYWGTYANFDYWGQGTQVTVSS | low polyreactivity
25 | QVQLVESGGGLVQAGGSLRLSCAASGSTFDYNTMGWYRQAPGTERELVADITWRGASTYYADSVKGRFTISRDNAKNTVYLQMNSLKPEDTAVYYCAADYYSATGSYAYDYWGQGTQVTVSS | low polyreactivity
26 | QVQLVESGGGLVQAGGSLRLSCAASGSTFDYYAMGWYRQAPGKERELVGVISSSGGSTYYADSVKGGFTISRDNAKNTVYLQMNSLKPEDTAVYYCAALYRNYGSSYAYYYWGQGTQVTVSS | low polyreactivity
27 | QVQLVESGGGLVQAGGSLRLSCAASGSTFDYYAMGWYRQTPGKERELVAAISWSGGSTYYADSVKGRFTISRDNAKNTVYLQMNSPKPEDTAVYYCATGTYFPRYKYFEGYYWGQGTQVTVSS | high polyreactivity
28 | QVQLVESGGGLVQAGGSLRLSCAASGSTFDYYDMGWYRQAPGKERELVATVTSGGSTNYADSVKGRFTISRDNAKNTVYLQMNSLKPEDTAVYYCAADIGGDGEGYDYWGQGTQVTLSS | low polyreactivity
29 | QVQLVESGGGLVQAGGSLRLSCAASGSTFDYYPMGWYRQAPGKERELVAGIDSAGSTNYADSVKGRFTISRDNAKNTVYLQMNSLKTGRYRGLYCNVGKTITTYAFPTFDYWGQGTQVTVSS | low polyreactivity
30 | QVQLVESGGGLVQAGGSLRLSCAASGSTFDYYTMGWYRQAPGKERELVAAINSSGGRTYYADSVKGRFTISRDNAKNTDYLQMNSLKPEVTAVYYCARTRSVYGYDYWGQGTQVTVSS | high polyreactivity
31 | QVQLVESGGGLVQAGGSLRLSCAASGSTFDYYYMGWYRQAPGKERELVAAISYSGTSTYYADSVKGRFTISRDNAKNTVYLQMNSQKPEDTAVYYCAKVFPDWYWYDYCGQGTQVTVSS | low polyreactivity
32 | QVQLVESGGGLVQAGGSLRLSCAASGSTFEANAMGWYRQAPGKERELVAVITWTGGSTYYADSVKGRFTISRDNAKNTVYLQMNSLKPEDTAVYYCAADGVVPCRFFWPAHEYDYWGQGTQVTVSS | low polyreactivity
33 | QVQLVESGGGLVQAGGSLRLSCAASGSTFEAYAMGWYRQAPGKERELVAAINFTGGRTYYADSVKGRFTISRDNAKNTVYLQINSLKPEDTAVYYCAARKWGVPYIDNDYWGQGTQVTVSS | low polyreactivity
34 | QVQLVESGGGLVQAGGSLRLSCAASGSTFEDYTLGGYRQATGKERELVAAINWDGSRTYYADSVKGRFTISRDNAKNTVYLQMNSLKPEDTAVYDCAAHSAYHRRRMYYWGQGTQVTVSS | high polyreactivity
35 | QVQLVESGGGLVQAGGSLRLSCAASGSTFEGYAMGWYRQAPGKERELVAVISSGSITKYADSVKGRFTISRDNAKNTVYLQMNSLKPEDTAVYYCARKGGIIFASYLLGGYWGQGTQVTVSS | low polyreactivity
36 | QVQLVESGGGLVQAGGSLRLSCAASGSTFEHYAMGWYRQAPGKERELVAAITRRGGSTYYADSVKGRFTISSDNAKNTVYLQMNSLKPEDTAVYYCYTVLRYSYYLPGYDYWGQGTQVTVSS | high polyreactivity
37 | QVQLVESGGGLVQAGGSLRLSCAASGSTFENYVRGWYRQAPGKERELFAAISRGGGSTHYADSVKGRFTISRDNAKITVYLQKKSLKPEDTAVYYCAARYQTYVGSSSISTGIYYYWGQGTQVTVSS | low polyreactivity
38 | QVQLVESGGGLVQAGGSLRLSCAASGSTFEPYAMGWYRQAPGKEREFVAAISGSGGSTYYADSVKGRFTISRDNAKNTVYLQMNSLKPEDTAVSYCAKDSFPWVDDDYWGQATQVTVSS | low polyreactivity
39 | QVQLVESGGGLVQAGGSLRLSCAASGSTFESYAMGWYRQAPGKERELVAAISQNGGSTYYADSVKGRFTISRDNAKNTVYLQMNSLKPEDTAVYYCNADVYPYYRKPWMDYWGQGPQVTVSS | low polyreactivity
40 | QVQLVESGGGLVQAGGSLRLSCAASGSTFESYDMGWYRPAPGKERELVAAIDWSGGITYYADSVKGRFTISRDNAKNTVYLQMNSLKPEDTAVYYCNADWFVRYPKRVYWSEYDYWGHGTQVTVSS | low polyreactivity
41 | QVQLVESGGGLVQAGGSLRLSCAASGSTFEVYVMGWYRQAPGKERELVAGISKRGGRTYYADSVKGRFTISRDTEKNTVYLQLNSLKPEDTAVYYCAADAPGHEYYYWGQGTQVTVSS | high polyreactivity
42 | QVQLVESGGGLVQAGGSLRLSCAASGSTFEWYAMGGYRQAPGKEREFVASISWSGGRTYYADSVKGRFTISRDNAKNTVYLQMNSLKPEDTAVYYCAAVAVPLQVPSGRAASKRRYGYWGQGTQVTVSS | high polyreactivity
43 | QVQLVESGGGLVQAGGSLRLSCAASGSTFEYNAKGWYRQAPGKERELVASSTNYADSVKGRFTISRDNAKNTVYFQMNSLKPEDTAVYYCAARSLRYPYDYWGQGTQVTVSS | low polyreactivity
